# Source: patent publication US20040137581A1 (Xencor, published 2004)
# Numbering of substitutions follows the chain as printed.
# T1: type I interferon receptor (UniProt P17181 28-557; P48551 27-515, limits assumed)
# T1 sequence (looked up) 1: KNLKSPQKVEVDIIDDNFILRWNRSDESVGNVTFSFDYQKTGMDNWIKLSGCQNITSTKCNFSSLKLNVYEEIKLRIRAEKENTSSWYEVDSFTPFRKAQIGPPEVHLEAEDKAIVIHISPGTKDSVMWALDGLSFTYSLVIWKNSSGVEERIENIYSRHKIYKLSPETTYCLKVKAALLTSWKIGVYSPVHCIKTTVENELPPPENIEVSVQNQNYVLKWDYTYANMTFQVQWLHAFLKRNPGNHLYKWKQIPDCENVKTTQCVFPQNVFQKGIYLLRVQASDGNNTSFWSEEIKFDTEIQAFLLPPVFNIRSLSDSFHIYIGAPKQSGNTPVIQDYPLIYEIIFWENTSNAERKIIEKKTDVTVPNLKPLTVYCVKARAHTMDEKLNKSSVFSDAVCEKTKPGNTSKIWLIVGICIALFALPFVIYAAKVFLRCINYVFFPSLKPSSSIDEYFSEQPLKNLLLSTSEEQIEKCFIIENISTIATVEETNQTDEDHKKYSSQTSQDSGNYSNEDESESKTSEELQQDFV
# T1 sequence (looked up) 2: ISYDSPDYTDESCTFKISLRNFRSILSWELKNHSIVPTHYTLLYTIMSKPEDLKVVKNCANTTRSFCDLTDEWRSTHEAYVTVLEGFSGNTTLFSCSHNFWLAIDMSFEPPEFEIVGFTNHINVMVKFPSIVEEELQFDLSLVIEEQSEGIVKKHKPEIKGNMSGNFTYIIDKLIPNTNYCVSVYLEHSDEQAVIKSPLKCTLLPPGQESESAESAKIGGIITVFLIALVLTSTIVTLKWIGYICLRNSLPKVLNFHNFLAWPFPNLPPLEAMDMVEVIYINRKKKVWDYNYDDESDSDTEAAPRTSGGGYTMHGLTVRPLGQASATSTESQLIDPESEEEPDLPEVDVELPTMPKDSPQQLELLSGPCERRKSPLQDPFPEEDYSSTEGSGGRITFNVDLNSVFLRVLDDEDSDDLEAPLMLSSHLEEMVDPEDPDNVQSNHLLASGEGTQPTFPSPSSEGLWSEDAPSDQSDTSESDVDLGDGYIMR
# B1: IFN1_1 (ligand)
# chain: MGSSHHHHHHSSGLVPRGSHMSYNLLGFLQRSSNFQSQKLLWQLNGRLEYCLKDRMNFDIPEEIKQLQQFQKEDAALTIYEMLQNIFAIFRQDSSSTGWNETIVENLLANVYHQINHLKTVLEEKLEKEDFTRGKLMSSLHLKRYYGRILHYLKAKEYSHCAWTIVRVEILRNFYFINRLTGYLRN
# B2: IFB1_23 (ligand)
# chain: B1 chain with L25Q, F28E, L136E
# B3: IFB1_64 (ligand)
# chain: B1 chain with L25Q, F28E, L67K, F131N, L136E, L140R
# B4: IFB1_2 (ligand)
# chain: B1 chain with L25Q
# B5: IFB1_36 (ligand)
# chain: B1 chain with F28E, F131N, L136E
# B6: IFB1_15 (ligand)
# chain: B1 chain with L25Q, F28E, F131N
# B7: IFB1_7 (ligand)
# chain: B1 chain with L25Q, F28E
# B8: IFB1_39 (ligand)
# chain: B1 chain with L25Q, F28E, F131N, L136E
# B9: IFB_GM2 (ligand)
# chain: B1 chain with L67S, F70S, L126S, F131S, L136S, L140S
# Molecular target: T1, type I interferon receptor
# Experiment: cell-based or functional assay
"EC50, ISRE-luciferase reporter assay in 293T cells","EC50 wt/EC50 var, ISRE-luciferase reporter assay in 293T cells [ratio]",Binder
5.31 ng/mL,1,B1
0.277 log ng/ml,19.2,B2
0.24 log ng/ml,22.1,B3
0.428 log ng/ml,12.4,B4
0.294 log ng/ml,18,B5
0.319 log ng/ml,16.6,B6
0.179 log ng/ml,29.6,B7
0.193 log ng/ml,27.5,B8

# Molecular target: T1, type I interferon receptor
# Experiment: cell-based or functional assay
# Remark: another data set of the same source
"EC50, ISRE-luciferase reporter assay in 293T cells [ng/mL]","EC50 wt/EC50 var, ISRE-luciferase reporter assay in 293T cells [ratio]",Binder
1.9,1,B1
0.074,25.7,B7
130,0.015,B9
